Experimental data taken from US10544202B2, “Mutant proteins and methods for their production” (Medical Research Council, priority 2013, dated 2020).
Residue numbers refer to the chain shown, from its start. Names may count otherwise. “And” between values parts separate entries of the source, which are not always exact repeats. Equal values may be shown once.

B1: wild-type SERT: cocaine-sensitive rat serotonin transporter, parent protein (protein, listed as Rattus sp.)
chain: METTPLNSQKVLSECKDREDCQENGVLQKGVPTTADRAEPSQISNGYSAVPSTSAGDEASHSIPAATTTLVAEIRQGERETWGKKMDFLLSVIGYAVDLGNIWRFPYICYQNGGGAFLLPYTIMAIFGGIPLFYMELALGQYHRNGCISIWRKICPIFKGIGYAICIIAFYIASYYNTIIAWALYYLISSLTDRLPWTSCTNSWNTGNCTNYFAQDNITWTLHSTSPAEEFYLRHVLQIHQSKGLQDLGTISWQLTLCIVLIFTVIYFSIWKGVKTSGKVVWVTATFPYIVLSVLLVRGATLPGAWRGVVFYLKPNWQKLLETGVWVDAAAQIFFSLGPGFGVLLAFASYNKFNNNCYQDALVTSVVNCMTSFVSGFVIFTVLGYMAEMRNEDVSEVAKDAGPSLLFITYAEAIANMPASTFFAIIFFLMLITLGLDSTFAGLEGVITAVLDEFPHIWAKRREWFVLIVVITCVLGSLLTLTSGGAYVVTLLEEYATGPAVLTVALIEAVAVSWFYGITQFCSDVKEMLGFSPGWFWRICWVAISPLFLLFIICSFLMSPPQLRLFQYNYPHWSIVLGYCIGMSSVICIPTYIIYRLISTPGTLKERIIKSITPETPTEIPCGDIRMNAV
B2: P499A: rat SERT single mutant P499A (protein)
chain: B1 chain with P499A
B3: L405A: rat SERT single mutant L405A (protein)
chain: B1 chain with L405A
B4: G115A: rat SERT single mutant G115A (protein)
chain: B1 chain with G115A
B5: SAH6: thermostabilised rat SERT triple mutant A505L+L99A+G278A (protein, UniProt P31652 1-630, looked up, variant A505L L99A G278A)
Sodium-dependent serotonin …: B1 chain with L99A, G278A, A505L
B6: L406A: rat SERT single mutant L406A (protein)
chain: B1 chain with L406A
B7: SAH7: thermostabilised rat SERT triple mutant A505L+P499A+L405A (protein, UniProt P31652 1-630, looked up, variant A505L P499A L405A)
Sodium-dependent serotonin …: B1 chain with L405A, P499A, A505L
B8: A169L: rat SERT single mutant A169L (protein)
chain: B1 chain with A169L
B9: G113A: rat SERT single mutant G113A (protein)
chain: B1 chain with G113A
B10: L99A: rat SERT single mutant L99A (protein)
chain: B1 chain with L99A
B11: G278A: rat SERT single mutant G278A (protein)
chain: B1 chain with G278A
B12: A505L: rat SERT single mutant A505L (protein)
chain: B1 chain with A505L
B13: F311A: rat SERT single mutant F311A (protein)
chain: B1 chain with F311A

Legend:
SAH6 [1] = molecular target: T1, SAH6 (Rattus norvegicus, UniProt P31652, A505L/G278A/L99A); assay: [125I]-RTI55 saturation binding on membranes, SAH6; design: expressed in transfected cells; host or cells: T-REx-293 (HEK293) cells, membranes; conditions: read-out: apparent KD for [125I]-RTI55 binding
SAH7 = molecular target: T2, SAH7 (Rattus norvegicus, UniProt P31652, A505L/L405A/P499A); assay: [125I]-RTI55 saturation binding on membranes, SAH7; conditions: read-out: apparent KD for [125I]-RTI55 binding
T2 construct: expressed in transfected cells; host or cells: T-REx-293 (HEK293) cells, membranes

SAH6 [2] = molecular target: T1, SAH6; conditions: SAH6 vs wild-type SERT
[3] = Thermostability assay of [125I]-RTI55-bound detergent-solubilised SERT (apparent Tm)
T-REx-293 cells [4] = assay: Expression level of SERT-mCherry mutants transiently transfected into T-REx-293 cells; assay type: cell-based; conditions: relative to wild-type SERT = 100%; transient transfection
Procedure: (FIG. 3A) Comparison of [^125I]-RTI55 bound to 554 detergent-solubilised Ala/Leu mutants at either 4° C. or after heating at 30° C. for 30 minutes. The data relating to thermostability (the heated samples) have been normalized to the amount of wild-type SERT remaining after heating (40%; horizontal dashed line). The expression level of wild-type SERT is indicated by the vertical dashed line and the grey column (0-200 dpm) represents non-specific binding of [^125I]-RTI55 to the parental T-REx-HEK293 cell line (no SERT). Each data point represents binding to the equivalent of 50,000 cells measured in duplicate (estimated error is ±20% in dpm). […] (FIG. 3C) Amino acid sequence of SERT (SEQ ID NO: 1) showing the positions of the thermostabilising mutations (hatched) that consistently gave >1° C. increase in Tm compared to wild-type SERT; residues in bold and hatched were used to stabilize either SAH6 and/or SAH7. N-linked glycosylation sites are indicated by the hexagons, a putative disulphide bond is shown as a grey line and the N-terminal and C-terminal fusion partners are shown (c-Myc tag and the fluorescent reporter protein mCherry) are indicated.

T-REx-293 cells [5] = assay: Cell surface expression by confocal microscopy; assay type: cell-based; design: key: *: low expression; **: as wild-type SERT; ***: higher expression than wild-type SERT; conditions: estimation by eye of fluorescence upon confocal microscopy
[6] = tested on: tetracycline-induced stable T-REx cell lines; assay: [3H]-5HT uptake assay; assay type: cell-based; conditions: cell lines expressing cell surface-expressed mutant-GFP

| Molecule | Expression (%) SERT = 100% (T-REx-293 cells [4]) [%] | Cell surface expression (T-REx-293 cells [5]) | other results |
| --- | --- | --- | --- |
| COC(=O)[C@H]1C(c2ccc(I)cc2)C[C@@H]2CC[C@H]1N2C (stereo partly drawn) [[^125I]-RTI55, RTI55 (β-CIT)] |  |  | Kd (SAH6 [1]): 3.8 nM and 3.7 nM; Kd (SAH7): 1.3 nM and 1.2 nM and 1.5 nM |
| CN(C)CCCN1c2ccccc2CCc2ccccc21 [imipramine] |  |  | decrease in affinity relative to wild-type SERT (SAH6 [2]): 6.7 fold |
| ibogaine |  |  | decrease in affinity relative to wild-type SERT (SAH6 [2]): 4.5 fold |
| B1 |  |  | amount of transporter remaining after heating ([3]; 30° C. for 30 minutes): 40%; Apparent Tm in 0.1% DDM ([3]; 125I-RTI55-bound detergent-solubilised SERT, apparent Tm ±1° C.): 28 °C; apparent Tm ([3]; [125I]-RTI55-bound, DDM-solubilised, 30 min heating): 28 °C; transporter remaining functional after heating ([3]; single-temperature assay, 28° C. for 30 minutes): approximately 40% |
| B2 | 65 | ** |  |
| B3 | 543 | *** |  |
| B4 | 327 | *** |  |
| B5 |  |  | transport of [3H]-5HT into the cell [6]: no significant transport |
| B6 | 87 | * |  |
| B7 |  |  | transport of [3H]-5HT into the cell [6]: no significant transport |
| B8 | 31 | ** |  |
| B9 | 42 | ** |  |
| B10 | 131 | ** |  |
| B11 | 39 | * |  |
| B12 | 175 | *** |  |
| B13 | 492 | ** |  |
